Measured values from publication PMC9352680, “A comprehensive thermodynamic model for RNA binding by the Saccharomyces cerevisiae Pumilio protein PUF4”.

T1: PUF4 RNA-binding domain (Saccharomyces cerevisiae, UniProt P25339 537-888)
T1 sequence: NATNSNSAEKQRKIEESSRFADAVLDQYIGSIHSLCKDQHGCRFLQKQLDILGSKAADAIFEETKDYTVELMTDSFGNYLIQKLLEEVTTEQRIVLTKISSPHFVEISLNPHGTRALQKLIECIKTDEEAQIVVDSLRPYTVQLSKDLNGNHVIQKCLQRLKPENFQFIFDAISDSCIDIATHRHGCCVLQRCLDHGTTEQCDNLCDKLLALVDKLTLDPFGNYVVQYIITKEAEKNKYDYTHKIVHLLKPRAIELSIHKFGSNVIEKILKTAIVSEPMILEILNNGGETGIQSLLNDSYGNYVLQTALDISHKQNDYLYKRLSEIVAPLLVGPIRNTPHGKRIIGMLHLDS


Molecular target: T1, PUF4 RNA-binding domain
Experiment: Mg; RNA-MaP; 20 mM Na-HEPES pH 7.4, 30 mM KOAc, 0.75 mM MgCl2, 0.1% Tween-20, 5% glycerol, 0.1 mg/mL BSA, 2 mM DTT; 25 C; 0.0125-409.6 nM protein
Settings: tags: N-His6-TEV cleaved; C-SNAP kept, Cy3B-labelled; label: tethered on chip by stalled RNA polymerase

Binder	Kd [nM]
ACAAACUCACACUUAUUAUGACAAAC (ssRNA) [Id_ii_S3_P5E.4_K5.3_C5.2_[C-2T]_[T-1C]_H5.3_A5.1_F5.1_T5.2_[A12G]]	> 2300
ACAAACAGACACUUAUUACAACAAAC (ssRNA) [Id_ii_S3_P5E.4_K5.3_C5.2_[C-2A]_[T-1G]_H5.3_A5.1_F5.1_T5.2_[T11C]]	> 2300
ACAAACCAACACUUAUUACUACAAAC (ssRNA) [Id_ii_S3_P5E.4_K5.3_C5.2_[T-1A]_H5.3_A5.1_F5.1_T5.2_[T11C]_[A12T]]	> 2300
UCUCUUUCUCUUAUUAUCUCUU (ssRNA) [Ib_S1_P5E.1_K5.1_C5.1_H5.1_[G2C]_[A4C]_A5.1_F5.1_T5.1]	> 2300
ACAAACCUACACUUAUUAGCACAAAC (ssRNA) [Id_ii_S3_P5E.4_K5.3_C5.2_H5.3_A5.1_F5.1_T5.2_[T11G]_[A12C]]	> 2300
ACAAACUUACACUUAUUACGACAAAC (ssRNA) [Id_ii_S3_P5E.4_K5.3_C5.2_[C-2T]_H5.3_A5.1_F5.1_T5.2_[T11C]_[A12G]]	> 2300
ACAAACCGACACUUAUUACGACAAAC (ssRNA) [Id_ii_S3_P5E.4_K5.3_C5.2_[T-1G]_H5.3_A5.1_F5.1_T5.2_[T11C]_[A12G]]	> 2300
ACAAACUUACACUUAUUAACACAAAC (ssRNA) [Id_ii_S3_P5E.4_K5.3_C5.2_[C-2T]_H5.3_A5.1_F5.1_T5.2_[T11A]_[A12C]]	> 2300
ACAAACGUACACUUAUUAUUACAAAC (ssRNA) [Id_ii_S3_P5E.4_K5.3_C5.2_[C-2G]_H5.3_A5.1_F5.1_T5.2_[A12T]]	702
ACAAACAAACACUUAUUAUCACAAAC (ssRNA) [Id_ii_S3_P5E.4_K5.3_C5.2_[C-2A]_[T-1A]_H5.3_A5.1_F5.1_T5.2_[A12C]]	> 2300
ACAAACUGACACUUAUUACGACAAAC (ssRNA) [Id_ii_S3_P5E.4_K5.3_C5.2_[C-2T]_[T-1G]_H5.3_A5.1_F5.1_T5.2_[T11C]_[A12G]]	> 2300
ACAAACAGACACUUAUUAUUACAAAC (ssRNA) [Id_ii_S3_P5E.4_K5.3_C5.2_[C-2A]_[T-1G]_H5.3_A5.1_F5.1_T5.2_[A12T]]	> 2300
ACAAACGUACACUUAUUAUCACAAAC (ssRNA) [Id_ii_S3_P5E.4_K5.3_C5.2_[C-2G]_H5.3_A5.1_F5.1_T5.2_[A12C]]	1180
ACAAACAGACACUUAUUAUCACAAAC (ssRNA) [Id_ii_S3_P5E.4_K5.3_C5.2_[C-2A]_[T-1G]_H5.3_A5.1_F5.1_T5.2_[A12C]]	> 2300
ACAAACGCACACUUAUUAUGACAAAC (ssRNA) [Id_ii_S3_P5E.4_K5.3_C5.2_[C-2G]_[T-1C]_H5.3_A5.1_F5.1_T5.2_[A12G]]	> 2300
ACAAACAAACACUUAUUAAAACAAAC (ssRNA) [Id_ii_S3_P5E.4_K5.3_C5.2_[C-2A]_[T-1A]_H5.3_A5.1_F5.1_T5.2_[T11A]]	> 2300
ACAAACACACACUUAUUAUCACAAAC (ssRNA) [Id_ii_S3_P5E.4_K5.3_C5.2_[C-2A]_[T-1C]_H5.3_A5.1_F5.1_T5.2_[A12C]]	> 2300
UCUCUUUCUUUUAUUAUCUCUU (ssRNA) [Ib_S1_P5E.1_K5.1_C5.1_H5.1_[G2C]_[A4T]_A5.1_F5.1_T5.1]	> 2300
ACAAACAUACACUUAUUAGGACAAAC (ssRNA) [Id_ii_S3_P5E.4_K5.3_C5.2_[C-2A]_H5.3_A5.1_F5.1_T5.2_[T11G]_[A12G]]	> 2300

Binder	Kd [nM]
ACAAACCGACACUUAUUACUACAAAC (ssRNA) [Id_ii_S3_P5E.4_K5.3_C5.2_[T-1G]_H5.3_A5.1_F5.1_T5.2_[T11C]_[A12T]]	> 2300
ACAAACAUACACUUAUUACGACAAAC (ssRNA) [Id_ii_S3_P5E.4_K5.3_C5.2_[C-2A]_H5.3_A5.1_F5.1_T5.2_[T11C]_[A12G]]	> 2300
UCUCUUUCUGUUAUUAUCUCUU (ssRNA) [Ib_S1_P5E.1_K5.1_C5.1_H5.1_[G2C]_[A4G]_A5.1_F5.1_T5.1]	> 2300
ACAAACGUACACUUAUUACCACAAAC (ssRNA) [Id_ii_S3_P5E.4_K5.3_C5.2_[C-2G]_H5.3_A5.1_F5.1_T5.2_[T11C]_[A12C]]	972
ACAAACGUACACUUAUUAAUACAAAC (ssRNA) [Id_ii_S3_P5E.4_K5.3_C5.2_[C-2G]_H5.3_A5.1_F5.1_T5.2_[T11A]_[A12T]]	707
ACAAACUCACACUUAUUAAUACAAAC (ssRNA) [Id_ii_S3_P5E.4_K5.3_C5.2_[C-2T]_[T-1C]_H5.3_A5.1_F5.1_T5.2_[T11A]_[A12T]]	> 2300
ACAAACGCACACUUAUUAUAACAAAC (ssRNA) [Id_ii_S3_P5E.4_K5.3_C5.2_[C-2G]_[T-1C]_H5.3_A5.1_F5.1_T5.2]	> 2300
ACAAACAAACACUUAUUAAGACAAAC (ssRNA) [Id_ii_S3_P5E.4_K5.3_C5.2_[C-2A]_[T-1A]_H5.3_A5.1_F5.1_T5.2_[T11A]_[A12G]]	> 2300
ACAAACUCACACUUAUUAAAACAAAC (ssRNA) [Id_ii_S3_P5E.4_K5.3_C5.2_[C-2T]_[T-1C]_H5.3_A5.1_F5.1_T5.2_[T11A]]	> 2300
ACAAACCCACACUUAUUAUGACAAAC (ssRNA) [Id_ii_S3_P5E.4_K5.3_C5.2_[T-1C]_H5.3_A5.1_F5.1_T5.2_[A12G]]	> 2300
ACAAACAAACACUUAUUAUAACAAAC (ssRNA) [Id_ii_S3_P5E.4_K5.3_C5.2_[C-2A]_[T-1A]_H5.3_A5.1_F5.1_T5.2]	> 2300
ACAAACUCACACUUAUUAGCACAAAC (ssRNA) [Id_ii_S3_P5E.4_K5.3_C5.2_[C-2T]_[T-1C]_H5.3_A5.1_F5.1_T5.2_[T11G]_[A12C]]	> 2300
ACAAACCCACACUUAUUACCACAAAC (ssRNA) [Id_ii_S3_P5E.4_K5.3_C5.2_[T-1C]_H5.3_A5.1_F5.1_T5.2_[T11C]_[A12C]]	> 2300
ACAAACUGACACUUAUUAAGACAAAC (ssRNA) [Id_ii_S3_P5E.4_K5.3_C5.2_[C-2T]_[T-1G]_H5.3_A5.1_F5.1_T5.2_[T11A]_[A12G]]	> 2300
ACAAACCGACACUUAUUACCACAAAC (ssRNA) [Id_ii_S3_P5E.4_K5.3_C5.2_[T-1G]_H5.3_A5.1_F5.1_T5.2_[T11C]_[A12C]]	> 2300
ACAAACCCACACUUAUUAAGACAAAC (ssRNA) [Id_ii_S3_P5E.4_K5.3_C5.2_[T-1C]_H5.3_A5.1_F5.1_T5.2_[T11A]_[A12G]]	> 2300
ACAAACCCACACUUAUUAUAACAAAC (ssRNA) [Id_ii_S3_P5E.4_K5.3_C5.2_[T-1C]_H5.3_A5.1_F5.1_T5.2]	> 2300
ACAAACACACACUUAUUAACACAAAC (ssRNA) [Id_ii_S3_P5E.4_K5.3_C5.2_[C-2A]_[T-1C]_H5.3_A5.1_F5.1_T5.2_[T11A]_[A12C]]	> 2300
ACAAACAAACACUUAUUAUGACAAAC (ssRNA) [Id_ii_S3_P5E.4_K5.3_C5.2_[C-2A]_[T-1A]_H5.3_A5.1_F5.1_T5.2_[A12G]]	> 2300

Binder	Kd [nM]
ACAAACAGACACUUAUUAGAACAAAC (ssRNA) [Id_ii_S3_P5E.4_K5.3_C5.2_[C-2A]_[T-1G]_H5.3_A5.1_F5.1_T5.2_[T11G]]	> 2300
ACAAACUCACACUUAUUACGACAAAC (ssRNA) [Id_ii_S3_P5E.4_K5.3_C5.2_[C-2T]_[T-1C]_H5.3_A5.1_F5.1_T5.2_[T11C]_[A12G]]	> 2300
ACAAACUAACACUUAUUACAACAAAC (ssRNA) [Id_ii_S3_P5E.4_K5.3_C5.2_[C-2T]_[T-1A]_H5.3_A5.1_F5.1_T5.2_[T11C]]	> 2300
ACAAACAGACACUUAUUACCACAAAC (ssRNA) [Id_ii_S3_P5E.4_K5.3_C5.2_[C-2A]_[T-1G]_H5.3_A5.1_F5.1_T5.2_[T11C]_[A12C]]	> 2300
ACAAACAUACACUUAUUAAUACAAAC (ssRNA) [Id_ii_S3_P5E.4_K5.3_C5.2_[C-2A]_H5.3_A5.1_F5.1_T5.2_[T11A]_[A12T]]	> 2300
ACAAACGAACACUUAUUAUCACAAAC (ssRNA) [Id_ii_S3_P5E.4_K5.3_C5.2_[C-2G]_[T-1A]_H5.3_A5.1_F5.1_T5.2_[A12C]]	> 2300
ACAAACUGACACUUAUUACCACAAAC (ssRNA) [Id_ii_S3_P5E.4_K5.3_C5.2_[C-2T]_[T-1G]_H5.3_A5.1_F5.1_T5.2_[T11C]_[A12C]]	> 2300
ACAAACUCACACUUAUUACAACAAAC (ssRNA) [Id_ii_S3_P5E.4_K5.3_C5.2_[C-2T]_[T-1C]_H5.3_A5.1_F5.1_T5.2_[T11C]]	> 2300
ACAAACGAACACUUAUUAACACAAAC (ssRNA) [Id_ii_S3_P5E.4_K5.3_C5.2_[C-2G]_[T-1A]_H5.3_A5.1_F5.1_T5.2_[T11A]_[A12C]]	> 2300
UCUCUUUAUGUUAUUAUCUCUU (ssRNA) [Ib_S1_P5E.1_K5.1_C5.1_H5.1_[G2A]_[A4G]_A5.1_F5.1_T5.1]	2070
ACAAACCGACACUUAUUAUAACAAAC (ssRNA) [Id_ii_S3_P5E.4_K5.3_C5.2_[T-1G]_H5.3_A5.1_F5.1_T5.2]	> 2300
ACAAACCCACACUUAUUAUCACAAAC (ssRNA) [Id_ii_S3_P5E.4_K5.3_C5.2_[T-1C]_H5.3_A5.1_F5.1_T5.2_[A12C]]	> 2300
ACAAACAAACACUUAUUACCACAAAC (ssRNA) [Id_ii_S3_P5E.4_K5.3_C5.2_[C-2A]_[T-1A]_H5.3_A5.1_F5.1_T5.2_[T11C]_[A12C]]	> 2300
ACAAACUGACACUUAUUAUAACAAAC (ssRNA) [Id_ii_S3_P5E.4_K5.3_C5.2_[C-2T]_[T-1G]_H5.3_A5.1_F5.1_T5.2]	> 2300
ACAAACACACACUUAUUACUACAAAC (ssRNA) [Id_ii_S3_P5E.4_K5.3_C5.2_[C-2A]_[T-1C]_H5.3_A5.1_F5.1_T5.2_[T11C]_[A12T]]	> 2300
ACAAACUUACACUUAUUAUCACAAAC (ssRNA) [Id_ii_S3_P5E.4_K5.3_C5.2_[C-2T]_H5.3_A5.1_F5.1_T5.2_[A12C]]	> 2300
ACAAACAAACACUUAUUACAACAAAC (ssRNA) [Id_ii_S3_P5E.4_K5.3_C5.2_[C-2A]_[T-1A]_H5.3_A5.1_F5.1_T5.2_[T11C]]	> 2300
UCUCUUUAUCUUAUUAUCUCUU (ssRNA) [Ib_S1_P5E.1_K5.1_C5.1_H5.1_[G2A]_[A4C]_A5.1_F5.1_T5.1]	> 2300
ACAAACAAACACUUAUUAGGACAAAC (ssRNA) [Id_ii_S3_P5E.4_K5.3_C5.2_[C-2A]_[T-1A]_H5.3_A5.1_F5.1_T5.2_[T11G]_[A12G]]	> 2300
